Patent publication WO2020216210A1 (dated 2020)

Biological target: T1, human EpCAM full-length protein (on MCF-7 and A431 cells) (human, UniProt P16422 24-314)
T1 construct: Endogenous EpCAM on the cell lines MCF-7 and A431 (ATCC); also called CD326; epithelial cell adhesion molecule
T1 sequence: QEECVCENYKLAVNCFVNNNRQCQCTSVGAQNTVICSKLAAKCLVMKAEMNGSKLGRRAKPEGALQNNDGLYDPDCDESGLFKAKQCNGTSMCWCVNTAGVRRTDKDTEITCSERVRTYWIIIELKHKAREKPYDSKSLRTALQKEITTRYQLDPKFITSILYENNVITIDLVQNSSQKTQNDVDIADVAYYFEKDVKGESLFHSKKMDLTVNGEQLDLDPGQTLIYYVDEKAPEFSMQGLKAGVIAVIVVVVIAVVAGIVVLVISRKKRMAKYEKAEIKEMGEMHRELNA
Experiment: flow cytometry (FACS) on MCF-7 and A431 cells, Alexa Fluor 488 goat anti-human IgG detection

B1: fully human antibody h1907 (antibody, human IgG1, kappa, V domains shown)
VH: QVTLKESGPTLVKPTQTLTLTCTFSGFSLSTSGVAVGWIRQPPGKALEWLALIYWDADTRYSPSLKSRLTITKDTSKNQVVLTMTNMDPVDTATYYCAHRPHGSGSYYAFDYWGQGILVTVSS
VL: DIVMTQSPSSLSASVGDRVTISCRASQNIRNYLNWYQHRPGEAPKLLISGVSRLQNGVPSRFSGSGSGTDFTLTIRSLQSEDFATYYCQQSYINWTFGQGTKVEIKR
notes: Complete antibody VH-CH1-FC/VL-CL built from a phage scFv
B1: binds.

B2: fully human antibody h1905 (antibody, human IgG1, kappa, V domains shown)
VH: QMQLVQSGAEVKKPGASVKVSCKASGYTFTSYDINWVRQATGQGLEWMGWMNPNSGNTGYAQKFQGRVTMTRNTSISTAYMELSSLRSEDTAVYYCARGVVVVVAATRGHYYYYYGMDVWGQGTTVTVSS
VL: DIQMTQSPSSLSASIGDRVSMTCRASQSVTKYLNWYQQTPGKPPKLLIFSASHLQTGVPSRFSGSGSGTDFTLTIDSLQPEDVATYYCQQSYSTPFTFGQGTKVEIKR
notes: as for B1
B2: binds.
